Test results reported in the NTF2 design screens of Basanta et al. (2020).

Experiment: protease stability score; higher = more stable; yeast display proteolysis, trypsin and chymotrypsin;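 also: relative to predicted unfolded state with 0 unfolded-like and 1 meaning tenfold more protease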

Row | Sequence | protease stability score
1 | REDEEMIEHAVRREIHSYYTGDWEKHYKLLDPNALIHIDINGRQENIHGREEIMRFWYERFKDFGFDHMEIKRITLVDGKLHIFSIIDVNGVRIELEIIIVKVDGRWRLHTMRYHYH | 0.652
2 | SEHEEYNRELSELFWHWFQTGDEEMMNKNVDPDARMIVGEKTHHGWEEFVKLLRETLKRLGADHIILRRMNVQGNKSHIDGEIRINGVTIKTELDLVVVDGRISSLRLSFH | 1.05
3 | DELDDITEHLLHRFVDSLITGDEDLLEKYADPNAKLIIEIGDKRIERHGMHRFYELLLRFKNVKLDVKEIHVQGDKATIESTLQYGDKKHDTRLEVEFYDGRLKIIRWEIR | 2.25
4 | SEEDKETKIALEISEKILETGDWEELSKNLDPDARFTFENRTHVGREEVSELLLKLIKEMGVNHVNIEDNDLQGDKIILIVEVRVGDKRVNLEIIAVKVNGRWRIHSIHERHE | 0.884
5 | DEDEELSERVTREWLHAILTGDEDWLRRYVDPHVRVHINVDGKDRTVHGMDFLIEHLRRVPNVRFIIKHMEVETQGEKVIIRVNVRIRVGDKEHETEIILIVLKVDGRWIATSIFIHIR | 0.231
6 | KELEEHELRLAKDMSKVIETGDEERLRRLADPHVKVHINGKTRHGREWMSHLLNLMLTELRVRHLHIKDVFEVNGVAHSETELDGEVNGREIELHTEIILVVVNGKIQRLEIRIE | 1.06
7 | SDEERDFTRLIRILRDALRTGDEHKLHELLDPHTRIIFDGQHHIGWERILEWADQIDHVHFRMTLHTVDIQGDKLRADLSLDVKIQVDGRTEHRHNVMHITVQKVNGRWRIQELYYK | 1.27
8 | DEEEKVEDDMLHRWLQYFLTGDEEHLLELADPRVRVRINGKDDHGMNAVERFWEEYRRKFKNVRIHIHDMRYYDGVIHVDGILQINGKTLKIEFIIVIVNGRIRFITENIR | 1.73
9 | DDKEQRVEELARLLYKMLLTGDWKTLEHLADPHVRMHQGEYNNVGMETVVEHWRRWYEHIRLDDMKITDLKVYGNKLHTDIRLDGEVNGKHRILESELLLIVVDGKMREIEIRII | 1.19
10 | DEIENLIVKLAMDFIKDEITGDEERLRHLADPHTRHHIGDKHFHGMELIMKHWKTMADRFDHLEVRLEHVRVQGDKVDVHGHIIEEYNGKRIEHHIRLNVEIVDGRVTRYHVKID | 1.32
11 | TDRHEIIIHRMKRLMLMELTGDEKLWERLVDPDVRIIFIFNGRRHEFHGREKALERLHDWWDHLRIDHLEVRRYDVINGRARTDMESHDTYDGQHYVIKFELVVQVIDGRVHSVEMIFK | 1.44
12 | DEIEKEMLKRARDILENWVTGDEDEFNRLADPNVRFELVYGDKSHSHHGMENLKKWLEEWTKRVDHFDLKIKSQRVVGDKAETETKLILNYDGRRFEHDTRIDVVVVNGRIKQIRVEIR | 1.59
13 | DESEEKAREFLEILVRDVRTGDEESAVRLLDPNVRIEQGDKELHGWEVYIHWAKHIRMRSVHLRTMEVQGDKVILRGDERQEIDGVESVRDVIVYVRKINGRWVMTSIEVL | 2.15
14 | TELEKLLKEMSDIIHHAWRTGDEHLVRNLADPNVRFHTQIDGRNDERWGREEMEKALHDWLRHFGVKHIIDKSIELQGDKITIKGHVDVDGVKIDVRIFLIVVNGKLKTMKIEHD | 1.19
15 | DDEEEFIRKLFEDFYRAFLTGDWHELFELMDPNTRTEINGVHFHGRHIISEYLVTHIERVDHVSITLTRLDKIGDYLIIDSHLRQDVNGKKIHVRLHMHAHKIDGRWKIHRFEFE | 1.34
16 | SEEDELAMEFMREQDRNQETGDWRRLSELADPNTRVEVNGREIHGMELWIKLLINKLREHGMEVRLHVERVEFYDGVADLDLRLYIHINGKDIHFHTQIIILKINGKWILKYIIIR | 1.25
17 | SEEEQEFRLILKEHLDKLETGDEDDLHRLMDPNVRIEIGDKEMHGREHATRFFRELRVEHVHLESYELQGEKVNLHGRMIGDINGKKVDRTVHIFLLKVNGRWIIHSWEVV | 2.14
18 | SDLDHRLRKLAEDLSRILETGNWRLMHKLADPNVKEDINGVEFHGRELLVKWLEDLLKELRVHFRVDHYDIQGNFLRVEITNNVFINGVQKVRDERLEVNMFDGKEKENRVRVE | 0.717
19 | SEEEEHWHTLAHMIVHWWLTGDEDAFMELADPHVRFEQGDYESVGMENVRERWRMIKEEIRIHEIRVHDVRFINGVIEVDTRLIRTFNGVREEVDYRVEIVEYNGRVKRVKLEIR | 1.33
20 | TEELEELEKMLELVLRSFHTGDEHLLERLADPHAKYHFNGKNLHGWDKLSHLWRKAGVEKVESRIRDLELQGDYVNTDVEMRYNGRTEEVEFRVKKIDGRWIIKEIIIR | 0.809
